Measured values taken from the supplement of paper PMC10126150.
± gives the standard deviation of the averaged measurements.

System: ATP
Experiment: switch fluorescence ratio, 500 uM ATP over buffer (Cy3 cluster intensity, sum of 5 cycles each) (fold (ratio)); higher = stronger signal-on switching upon ATP binding; sequences stand for … in TCGTCGGCAGCGTCAGATGTGTATAAGAGACAGTTTTTTTTTTTTTTTTTTTTTTTTT…TC
Conditions: aptamer strand: ATP DNA aptamer (quencher-CACCTGGGGGAGTATTGCGGAGGAAGG + anchor), 100 nM annealed; ATP concentration: 500 uM
Summary of the method: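 Between each of five buffer/ATP cycles, the flow-cell was stripped with NaOH and re-annealed. Each cycle imaged Cy3-labelled switching-strand clusters, annealed to 100 nM quencher-labelled ATP aptamer on a modified Illumina MiSeq flow-cell, first in selection buffer and then after 15 min with 500 uM ATP at 22 °C. The fluorescence ratio is summed target-cycle over summed buffer-cycle Cy3 intensity per cluster, averaged per switch-domain sequence, with clusters outside 100-1000 RFU excluded.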
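Further: ATP exposure 15 min at 22 °C before imaging.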

Sequence	switch fluorescence ratio
AGAAGGTGTT	1.07 ± 0.078
AAAGTGGTCT	1 ± 0.015
ATGATTTGGG	1.01 ± 0.011
AATTGGATGG	1.02 ± 0.047
AGAGCTTGAT	1 ± 0.036
CAGCGGCTTT	0.977 ± 0.032
TTTTCCAGGT	1.83 ± 0.42
TGTGTTTATT	1.051 ± 0.008
ACGGGCAACG	0.9743 ± 0.0065
GTTGAACAGT	1.01 ± 0.065
GAGAGAGGTG	1.0377 ± 0.00093
GGGGTATGGG	0.985 ± 0.038
AAAGGTTGGG	0.992 ± 0.044
TTTCGGTATT	1.02 ± 0.02
AGGAGAAGGG	0.985 ± 0.018
TATTGGGTTC	0.965 ± 0.011
AGTTCGGATG	1 ± 0.057
CGCGAGAATA	1.01 ± 0.084
CCGTGAATAT	2.21 ± 0.083
AGAGAGCCGT	1.06 ± 0.031
CGCCTAACGA	1.08 ± 0.024
TTACCCCAGT	1.21 ± 0.036
GAAAAAATTT	1.031 ± 0.0019
GGGAAGAGGT	0.988 ± 0.027
GTGAAGGGTA	0.985 ± 0.0081

Sequence	switch fluorescence ratio
TAATAGTTCC	1.106 ± 0.0025
TGGATGAGCT	0.9968 ± 0.0088
TAAATGTCTG	0.995 ± 0.015
GGAGTGCAG	0.964 ± 0.025
GGGAACACGA	1.01 ± 0.018
GTTTTGGTTT	0.986 ± 0.024
TGGGGGATAT	1.05 ± 0.052
ACTGAGTCAT	1.01 ± 0.034
TGAGTGATGT	1.01 ± 0.023
TAGGGGGTT	1.01 ± 0.026
AAAATCTAAA	1.014 ± 0.0068
TGAGGGGGCG	1.03 ± 0.11
TGGGAGTCTG	0.9898 ± 0.0047
GAATCTTAGG	1.03 ± 0.024
TTAGAGACAG	0.985 ± 0.049
GAGTGCGGAT	0.98 ± 0.026
AACAGTATTT	1.04 ± 0.011
GGGGCAGTGT	0.991 ± 0.042
TTCGTCGGGC	0.9863 ± 0.0071
TTTGCCAAAC	1.52 ± 0.55
TCTTATGTTA	0.989 ± 0.021
CAAAGCAAAA	2.36 ± 2
TAATTCCCGT	1.01 ± 0.036
CATTGGGGAG	1.01 ± 0.026
CGGGATGATT	0.998 ± 0.044

Sequence	switch fluorescence ratio
TAAGTGGGCC	1 ± 0.036
AAAGGTGGGG	1.001 ± 0.01
ATGGTTTTTT	1 ± 0.032
TTAATCTCGG	0.9954 ± 0.0016
TGGTTTGGCG	1.02 ± 0.18
TGGTGTAAGA	1.04 ± 0.025
TGGCGGTGGT	0.978 ± 0.017
GAGCGAGGGA	1.14 ± 0.052
AGAGTATTAA	0.9824 ± 0.004
GGGTATGTGG	0.972 ± 0.032
TGGGAGTACT	1.0104 ± 0.00041
GCATTGGTGG	1.03 ± 0.019
TCATTAAGAT	0.994 ± 0.053
ATGGGTCTGC	1.16 ± 0.31
TAGAACGGGG	0.9978 ± 0.0022
ACCTTTTAGT	1.04 ± 0.018
TGAAAGTATT	1 ± 0.022
CAAGGGGGTG	1.03 ± 0.03
ACGATAATCG	0.996 ± 0.008
TTTTCTGCCT	1.07 ± 0.089
TTTGGGTCTT	1.02 ± 0.013
GGTTCGGGTG	1.075 ± 0.0041
TTGAATTAAC	1.03 ± 0.06
GTGTTGGGGC	0.985 ± 0.038
AGGCCGGGGG	0.992 ± 0.025

Sequence	switch fluorescence ratio
AGTCGGGCGT	1 ± 0.046
CTGGGGCAGA	1.02 ± 0.011
AGTTGAGTTA	1 ± 0.011
CTTGAGATGT	1.02 ± 0.044
TGTTTTTATC	0.992 ± 0.013
ATGGCCGGGA	0.999 ± 0.016
GATATTGGTT	1.02 ± 0.025
CGCGTGATGG	1 ± 0.021
ACGGGTAGGG	1.05 ± 0.035
TGGTGGTCGC	0.9778 ± 0.0044
GATTGGCACC	0.965 ± 0.014
TTTAGGCCTC	1.01 ± 0.014
GGTGGGTATT	0.966 ± 0.021
TTACACAAAA	1 ± 0.033
TTCTATAATT	1.03 ± 0.02
TGCTTGCTTT	1.004 ± 0.01
ACGAGATGAC	1.05 ± 0.067
TTAATAGTTT	0.988 ± 0.04
ACGGTCGGCT	1.04 ± 0.048
TTTGCATGCA	1.03 ± 0.02
TTGTAGGGCC	1.03 ± 0.022
TACTGATAGG	1.0161 ± 0.00099
GGCTGGGGGA	1.01 ± 0.024
ATCTGTCCAG	1 ± 0.071
TGGCGGGTTA	0.988 ± 0.067

Sequence	switch fluorescence ratio
TTTGATGTAC	1.05 ± 0.013
GTGGGGCCTG	0.955 ± 0.013
TAAGGCTACC	1.048 ± 0.004
CTCCTCAGTG	2.26 ± 0.29
CTGCGGGGGT	1.03 ± 0.038
GTGTTAAGGT	0.99 ± 0.019
GGCGGGGGGC	0.986 ± 0.026
TAAGGGGAAA	0.979 ± 0.026
CTGCTCCGAT	1.21 ± 0.034
TTTTCAAAGC	1.67 ± 0.84
CATGAAGGTA	0.9566 ± 0.0087
TTAGTTTAAT	1.02 ± 0.024
AAATGTTCTG	0.948 ± 0.021
ATCGGAGGTG	1.02 ± 0.062
GGTTTGAGGA	0.971 ± 0.012
GCGAGCCAGG	2.169 ± 0.011
TTTATCCGTC	0.96 ± 0.033
GGGCTGGGGC	0.997 ± 0.11
CGAGGGTAGT	1.01 ± 0.025
GGTGAGGTTG	0.971 ± 0.02
TTAGCGTTTT	1.16 ± 0.25
ATAAAAATGG	1.004 ± 0.0075
GATACGAACG	1.32 ± 0.043
ATTTGTAATC	1.22 ± 0.31
TTCCACGTTT	1.11 ± 0.12

Sequence	switch fluorescence ratio
CCGGTGTGTT	1.03 ± 0.086
AAGGGAAAAA	1.03 ± 0.092
TATTTGGAGG	0.992 ± 0.0044
AAAGGATGAT	0.9978 ± 0.0031
AAAGATGATG	1.0025 ± 0.00068
ATCATTAACT	1.02 ± 0.013
TAGTTAGTGT	0.981 ± 0.013
AATGGTAAAC	1.04 ± 0.018
TAGTTATTTT	1.01 ± 0.021
TGATAGGGTG	1.03 ± 0.053
TTCCAATAGG	1.13 ± 0.21
GTGATATCTG	0.98 ± 0.038
AGGTGGAAGG	0.984 ± 0.021
ACGGCCAAGG	1.05 ± 0.031
CGCTCTAATA	1.058 ± 0.01
ATGTATAGGA	0.992 ± 0.029
CCGGGCTCTG	1.06 ± 0.013
CGGGGTTTGG	0.999 ± 0.017
ATGGGTGTAC	1.01 ± 0.016
TTCTGCGTAT	1.01 ± 0.036
GAATGGGGCT	0.987 ± 0.037
AACGGCCGTG	1.02 ± 0.046
TCTATGTTAT	0.999 ± 0.027
CGGGTGGGAA	0.9995 ± 0.0026
TGGATATAGG	1.03 ± 0.038

Sequence	switch fluorescence ratio
TTGGGATTCT	0.979 ± 0.019
TAAAAAGCGC	1.03 ± 0.03
ATCATGGTTG	1.002 ± 0.0063
GCGGGGGTTA	0.994 ± 0.018
CATTAGGCTG	1.02 ± 0.015
GGATGATGCA	1.03 ± 0.028
ATTTTGTCCT	1.08 ± 0.11
GCATTTTTTC	1.03 ± 0.019
TTGAGGGGAT	1.004 ± 0.0059
GGAGTCAGCG	0.977 ± 0.025
CTGTACGACA	1.18 ± 0.02
CGGACTAGCG	0.944 ± 0.032
AAGTTAGACA	1.021 ± 0.0087
GGATTAGTTT	0.994 ± 0.029
ATGTAGTTAT	0.996 ± 0.048
TTTTAATAGC	1 ± 0.028
ACGATTTTTC	0.974 ± 0.056
GTTGCTTAGT	0.9724 ± 0.0038
TCCTCACTGT	1.18 ± 0.034
ATGTGGCTTA	0.989 ± 0.022
GCAGACAGCT	1.037 ± 0.0085
TAAGTTTTAG	1.07 ± 0.081
GGGGATAGGC	1.01 ± 0.023
TAAATGACTA	0.987 ± 0.018
GTAAAAATGG	1.05 ± 0.12

Sequence	switch fluorescence ratio
TAGAGGAAGG	0.979 ± 0.021
GGATCTTTTT	1.03 ± 0.026
TTCTAAGGGA	1.01 ± 0.023
CACGTAGTAA	1.13 ± 0.03
CATAAGATCC	0.994 ± 0.025
CGGTTGCGGA	0.995 ± 0.051
TATTTGGTTT	1 ± 0.017
ATTGTGGAGC	1.04 ± 0.061
AGGTGTTTGT	1.01 ± 0.028
GGCCTCGGGG	1.01 ± 0.05
GCGTGGGGGT	1.01 ± 0.012
CGCTTTCTTT	1.03 ± 0.041
GGTTCTATTT	1.03 ± 0.016
GGAGTATATC	1.08 ± 0.073
ATATCGAGTT	0.9894 ± 0.00022
CTCGTGTGTG	1.044 ± 0.0073
TTAGGCCTTT	0.972 ± 0.048
GTGGGCGGCG	1.02 ± 0.064
TTTTTACGGA	1.02 ± 0.043
TGATAGACAT	0.988 ± 0.019
ACACATCATA	1.07 ± 0.032
GGGCCACGGA	1.01 ± 0.048
CTCATATAGC	0.999 ± 0.019
GGAGTCGTTA	1 ± 0.041
ACGGTTGGTG	1.01 ± 0.027
